Reference: US20240132624A1 (Ablynx, published 2024)
Numbering of substitutions follows the chain as printed.

B1: T0263018B11 S56Q (VHH, name in Kabat numbering)
VHH: EVQLVESGGGVVQPGGSLRLSCAASGFTFSSYAMYWVRQAPGKGLEWVSAISSGGGQTDYADSVKGRFTISRDNSKNTLYLQMNSLRPEDTALYYCAADTLYTSLTWYSYWGQGTLVTVSS
notes: FLAG3-His6 tagged
B2: T0263018B11 S101Q (VHH, name in Kabat numbering)
VHH: B1 VHH with Q57S, S109Q
notes: FLAG3-His6 tagged
B3: T0263018B11 S100K (VHH, name in Kabat numbering)
VHH: B1 VHH with Q57S, S104K
notes: FLAG3-His6 tagged
B4: T0263018B11 T57F (VHH, name in Kabat numbering)
VHH: B1 VHH with Q57S, T58F
notes: FLAG3-His6 tagged
B5: T0263018B11 S101E (VHH, name in Kabat numbering)
VHH: B1 VHH with Q57S, S109E
notes: FLAG3-His6 tagged
B6: T0263018B11 S56T (VHH, name in Kabat numbering)
VHH: B1 VHH with Q57T
notes: FLAG3-His6 tagged
B7: T0263018B11 S101A (VHH, name in Kabat numbering)
VHH: B1 VHH with Q57S, S109A
notes: FLAG3-His6 tagged
B8: T0263018B11 T28P (VHH, name in Kabat numbering)
VHH: B1 VHH with T28P, Q57S
notes: FLAG3-His6 tagged
B9: T0263018B11 S101V (VHH, name in Kabat numbering)
VHH: B1 VHH with Q57S, S109V
notes: FLAG3-His6 tagged
B10: T0263018B11 S100Q (VHH, name in Kabat numbering)
VHH: B1 VHH with Q57S, S104Q
notes: FLAG3-His6 tagged
B11: T0263018B11 S101W (VHH, name in Kabat numbering)
VHH: B1 VHH with Q57S, S109W
notes: FLAG3-His6 tagged
B12: T0263018B11 S100M (VHH, name in Kabat numbering)
VHH: B1 VHH with Q57S, S104M
notes: FLAG3-His6 tagged
B13: T0263018B11 S101M (VHH, name in Kabat numbering)
VHH: B1 VHH with Q57S, S109M
notes: FLAG3-His6 tagged
B14: T0263018B11 T57I (VHH, name in Kabat numbering)
VHH: B1 VHH with Q57S, T58I
notes: FLAG3-His6 tagged
B15: T0263018B11 T28V (VHH, name in Kabat numbering)
VHH: B1 VHH with T28V, Q57S
notes: FLAG3-His6 tagged
B16: T0263018B11 T28N (VHH, name in Kabat numbering)
VHH: B1 VHH with T28N, Q57S
notes: FLAG3-His6 tagged
B17: T0263018B11 T57L (VHH, name in Kabat numbering)
VHH: B1 VHH with Q57S, T58L
notes: FLAG3-His6 tagged
B18: T0263018B11 T28W (VHH, name in Kabat numbering)
VHH: B1 VHH with T28W, Q57S
notes: FLAG3-His6 tagged
B19: T0263018B11 T28I (VHH, name in Kabat numbering)
VHH: B1 VHH with T28I, Q57S
notes: FLAG3-His6 tagged
B20: T0263018B11 T28Y (VHH, name in Kabat numbering)
VHH: B1 VHH with T28Y, Q57S
notes: FLAG3-His6 tagged
B21: T0263018B11 S101T (VHH, name in Kabat numbering)
VHH: B1 VHH with Q57S, S109T
notes: FLAG3-His6 tagged
B22: T0263018B11 T28L (VHH, name in Kabat numbering)
VHH: B1 VHH with T28L, Q57S
notes: FLAG3-His6 tagged
B23: T0263018B11 S56V (VHH, name in Kabat numbering)
VHH: B1 VHH with Q57V
notes: FLAG3-His6 tagged
B24: T0263018B11 T57N (VHH, name in Kabat numbering)
VHH: B1 VHH with Q57S, T58N
notes: FLAG3-His6 tagged

target: T1, cyno FcRn/b2M (cyno, UniProt Q8SPV9 24-297; Q8SPW0 21-119, biotinylated); assay: SPR off-rate; pH 7.4 vs pH 6.0;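 note: surface plasmon resonance with diluted periplasmic extracts flowed over ligand surfaces, 120 s association and 600–3600 s dissociation at 25 °C, running buffer containing 150 mM NaCl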
T1 construct: bought recombinant biotinylated protein (Immunitrack ITF05 or ACRO FCM-C82W5); also called cFcRn; cFcRn/cb2M
T1 sequence (Q8SPV9 24-297 limits assumed, chain 1 of 2): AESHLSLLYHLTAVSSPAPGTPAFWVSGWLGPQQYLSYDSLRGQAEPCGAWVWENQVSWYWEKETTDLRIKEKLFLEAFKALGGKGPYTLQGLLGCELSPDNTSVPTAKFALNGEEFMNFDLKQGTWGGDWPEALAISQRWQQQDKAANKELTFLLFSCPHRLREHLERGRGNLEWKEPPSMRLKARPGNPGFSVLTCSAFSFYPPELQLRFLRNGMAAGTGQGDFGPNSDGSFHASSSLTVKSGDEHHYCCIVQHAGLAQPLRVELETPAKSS
T1 sequence (Q8SPW0 21-119 limits assumed, chain 2 of 2): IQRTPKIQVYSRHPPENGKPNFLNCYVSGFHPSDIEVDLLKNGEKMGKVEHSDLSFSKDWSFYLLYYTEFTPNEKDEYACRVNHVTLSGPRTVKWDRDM
Experimental: (§1) All kinetic measurements have been performed on ProteOn XPR36 (BioRad Laboratories, Inc.), MASS-2 (Sierra sensors, Gmbh) or SPR-32 (Bruker Corporation). […] The phytip purified periplasmic extracts were diluted 1:10 in running buffer (CPA+150 mM NaCl+0.005% Tw20 at pH 5.5, pH 6.0 or pH 7.4) and injected over the ligand surfaces (association: 120 s at 45 μL/min; dissociation: 600s-3600 s at 45 μL/min). Experiments were carried out at 25° C.

Binder	kd ratio pH 7.4/6.0
B1	38
B2	43
B3	69
B4	43
B5	36
B6	47
B7	45
B8	28
B9	45
B10	69
B11	9
B12	68
B13	54
B14	43
B15	42
B16	77
B17	39
B18	80
B19	75
B20	79
B21	54
B22	48
B23	37
B24	48

target: T2, human FcRn/b2M (human, UniProt P61769 21-119, biotinylated); assay: SPR off-rate; pH 7.4 vs pH 6.0;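 note: surface plasmon resonance with diluted periplasmic extracts flowed over ligand surfaces, 120 s association and 600–3600 s dissociation at 25 °C, running buffer containing 150 mM NaCl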
T2 construct: bought recombinant biotinylated protein (ACRO FCM-H82W4 or Immunitrack ITF01); also called hFcRn; hFcRn/hb2M
T2 sequence (chain, as listed by the source limits assumed, chain 1 of 2): as the sequence (Q8SPV9 24-297 limits assumed, chain 1 of 2) above, with D39N, Q44E, S99G, G189S, N190S, M217L, T269S counted along it
T2 sequence (P61769 21-119 limits assumed, chain 2 of 2): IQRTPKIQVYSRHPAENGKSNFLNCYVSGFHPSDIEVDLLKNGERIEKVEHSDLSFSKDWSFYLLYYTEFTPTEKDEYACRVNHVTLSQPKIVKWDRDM
Experimental: as §1

Binder	kd ratio pH 7.4/6.0
B1	30
B2	45
B3	54
B4	33
B5	44
B6	42
B7	36
B8	26
B9	43
B10	68
B11	17
B12	57
B13	44
B14	33
B15	38
B16	51
B17	37
B18	59
B19	46
B20	59
B21	44
B22	41
B23	34
B24	43

target: T1, cyno FcRn/b2M; assay: SPR pH 6.0;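 note: surface plasmon resonance kinetics at 25 °C, diluted periplasmic extracts injected over immobilized ligand surfaces, 120 s association then 600–3600 s dissociation, running buffer containing 150 mM NaCl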
Experimental: as §1

Binder	koff [s⁻¹]
B1	0.0018
B2	0.00038
B3	0.0012
B4	0.00084
B5	9.4e-05
B6	0.001
B7	0.0013
B8	0.0012
B9	0.00058
B10	0.00084
B11	9.7e-05
B12	0.00024
B13	0.00068
B14	0.0014
B15	0.0022
B16	0.0009
B17	0.0009
B18	0.00017
B19	0.00044
B20	0.00053
B21	0.00036
B22	0.0013
B23	0.001
B24	0.00062

target: T2, human FcRn/b2M; assay: SPR pH 6.0;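 note: surface plasmon resonance kinetics at 25 °C, diluted periplasmic extracts injected over immobilized ligand surfaces, 120 s association then 600–3600 s dissociation, running buffer containing 150 mM NaCl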
Experimental: as §1

Binder	koff [s⁻¹]
B1	0.0022
B2	0.00055
B3	0.0032
B4	0.00099
B5	0.00018
B6	0.0013
B7	0.0017
B8	0.0015
B9	0.00073
B10	0.0019
B11	7e-05
B12	0.00056
B13	0.0011
B14	0.0015
B15	0.0032
B16	0.0019
B17	0.0011
B18	0.00041
B19	0.0011
B20	0.0012
B21	0.00057
B22	0.0018
B23	0.0013
B24	0.00086

target: T1, cyno FcRn/b2M; assay: SPR pH 7.4;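 note: surface plasmon resonance kinetics, periplasmic extracts diluted 1:10 flowed over immobilized target at 25 °C, 120 s association then 600–3600 s dissociation, buffer with 150 mM NaCl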
Experimental: as §1

Binder	koff [s⁻¹]
B1	0.068
B2	0.016
B3	0.083
B4	0.036
B5	0.0034
B6	0.047
B7	0.058
B8	0.033
B9	0.026
B10	0.058
B11	0.00086
B12	0.016
B13	0.037
B14	0.06
B15	0.092
B16	0.069
B17	0.035
B18	0.014
B19	0.033
B20	0.042
B21	0.019
B22	0.062
B23	0.038
B24	0.03

target: T2, human FcRn/b2M; assay: SPR pH 7.4;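 note: surface plasmon resonance kinetics, periplasmic extracts diluted 1:10 flowed over immobilized target at 25 °C, 120 s association then 600–3600 s dissociation, buffer with 150 mM NaCl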
Experimental: as §1

Binder	koff [s⁻¹]
B1	0.067
B2	0.025
B3	0.18
B4	0.033
B5	0.0078
B6	0.055
B7	0.062
B8	0.039
B9	0.032
B10	0.13
B11	0.0012
B12	0.032
B13	0.048
B14	0.049
B15	0.12
B16	0.097
B17	0.04
B18	0.024
B19	0.049
B20	0.071
B21	0.025
B22	0.073
B23	0.044
B24	0.037
